IntAct's records for PubMed 31515488

B1: Caspase-2 (Homo sapiens), P42575 (parent)
chain: MAAPSAGSWSTFQHKELMAADRGRRILGVCGMHPHHQETLKKNRVVLAKQLLLSELLEHLLEKDIITLEMRELIQAKVGSFSQNVELLNLLPKRGPQAFDAFCEALRETKQGHLEDMLLTTLSGLQHVLPPLSCDYDLSLPFPVCESCPLYKKLRLSTDTVEHSLDNKDGPVCLQVKPCTPEFYQTHFQLAYRLQSRPRGLALVLSNVHFTGEKELEFRSGGDVDHSTLVTLFKLLGYDVHVLCDQTAQEMQEKLQNFAQLPAHRVTDSCIVALLSHGVEGAIYGVDGKLLQLQEVFQLFDNANCPSLQNKPKMFFIQACRGDETDRGVDQQDGKNHAGSPGCEESDAGKEKLPKMRLPTRSDMICGYACLKGTAAMRNTKRGSWYIEALAQVFSERACDMHVADMLVKVNALIKDREGYAPGTEFHRCKEMSEYCSTLCRHLYLFPGHPPT
B2: Fas-activated serine/threonine kinase (Homo sapiens), Q14296-1 (parent)
chain: MRRPRGEPGPRAPRPTEGATCAGPGESWSPSPNSMLRVLLSAQTSPARLSGLLLIPPVQPCCLGPSKWGDRPVGGGPSAGPVQGLQRLLEQAKSPGELLRWLGQNPSKVRAHHYSVALRRLGQLLGSRPRPPPVEQVTLQDLSQLIIRNCPSFDIHTIHVCLHLAVLLGFPSDGPLVCALEQERRLRLPPKPPPPLQPLLRGGQGLEAALSCPRFLRYPRQHLISSLAEARPEELTPHVMVLLAQHLARHRLREPQLLEAIAHFLVVQETQLSSKVVQKLVLPFGRLNYLPLEQQFMPCLERILAREAGVAPLATVNILMSLCQLRCLPFRALHFVFSPGFINYISGTPHALIVRRYLSLLDTAVELELPGYRGPRLPRRQQVPIFPQPLITDRARCKYSHKDIVAEGLRQLLGEEKYRQDLTVPPGYCTDFLLCASSSGAVLPVRTQDPFLPYPPRSCPQGQAASSATTRDPAQRVVLVLRERWHFCRDGRVLLGSRALRERHLGLMGYQLLPLPFEELESQRGLPQLKSYLRQKLQALGLRWGPEGG
partner: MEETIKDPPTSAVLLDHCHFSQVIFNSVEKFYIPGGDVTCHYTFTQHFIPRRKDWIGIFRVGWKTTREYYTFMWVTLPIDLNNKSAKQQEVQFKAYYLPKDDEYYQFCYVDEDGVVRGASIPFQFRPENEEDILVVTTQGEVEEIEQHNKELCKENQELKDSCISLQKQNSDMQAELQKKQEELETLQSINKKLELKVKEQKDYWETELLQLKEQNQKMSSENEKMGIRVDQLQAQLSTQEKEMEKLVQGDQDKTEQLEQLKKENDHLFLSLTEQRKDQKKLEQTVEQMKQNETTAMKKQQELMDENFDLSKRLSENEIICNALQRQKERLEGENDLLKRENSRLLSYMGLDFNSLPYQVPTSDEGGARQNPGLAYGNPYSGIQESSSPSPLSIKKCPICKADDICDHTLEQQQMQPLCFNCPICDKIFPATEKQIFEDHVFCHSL
B3: Transcription factor 12 (Homo sapiens), Q99081 (parent)
chain: MNPQQQRMAAIGTDKELSDLLDFSAMFSPPVNSGKTRPTTLGSSQFSGSGIDERGGTTSWGTSGQPSPSYDSSRGFTDSPHYSDHLNDSRLGAHEGLSPTPFMNSNLMGKTSERGSFSLYSRDTGLPGCQSSLLRQDLGLGSPAQLSSSGKPGTAYYSFSATSSRRRPLHDSAALDPLQAKKVRKVPPGLPSSVYAPSPNSDDFNRESPSYPSPKPPTSMFASTFFMQDGTHNSSDLWSSSNGMSQPGFGGILGTSTSHMSQSSSYGNLHSHDRLSYPPHSVSPTDINTSLPPMSSFHRGSTSSSPYVAASHTPPINGSDSILGTRGNAAGSSQTGDALGKALASIYSPDHTSSSFPSNPSTPVGSPSPLTGTSQWPRPGGQAPSSPSYENSLHSLQSRMEDRLDRLDDAIHVLRNHAVGPSTSLPAGHSDIHSLLGPSHNAPIGSLNSNYGGSSLVASSRSASMVGTHREDSVSLNGNHSVLSSTVTTSSTDLNHKTQENYRGGLQSQSGTVVTTEIKTENKEKDENLHEPPSSDDMKSDDESSQKDIKVSSRGRTSSTNEDEDLNPEQKIEREKERRMANNARERLRVRDINEAFKELGRMCQLHLKSEKPQTKLLILHQAVAVILSLEQQVRERNLNPKAACLKRREEEKVSAVSAEPPTTLPGTHPGLSETTNPMGHM
partner: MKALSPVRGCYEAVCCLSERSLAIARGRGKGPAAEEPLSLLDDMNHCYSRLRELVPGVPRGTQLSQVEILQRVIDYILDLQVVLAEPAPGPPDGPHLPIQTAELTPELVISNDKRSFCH
B4: Histone-lysine N-methyltransferase SMYD1 (Homo sapiens), Q8NB12 (parent)
chain: MTIGRMENVEVFTAEGKGRGLKATKEFWAADIIFAERAYSAVVFDSLVNFVCHTCFKRQEKLHRCGQCKFAHYCDRTCQKDAWLNHKNECSAIKRYGKVPNENIRLAARIMWRVEREGTGLTEGCLVSVDDLQNHVEHFGEEEQKDLRVDVDTFLQYWPPQSQQFSMQYISHIFGVINCNGFTLSDQRGLQAVGVGIFPNLGLVNHDCWPNCTVIFNNGNHEAVKSMFHTQMRIELRALGKISEGEELTVSYIDFLNVSEERKRQLKKQYYFDCTCEHCQKKLKDDLFLGVKDNPKPSQEVVKEMIQFSKDTLEKIDKARSEGLYHEVVKLCRECLEKQEPVFADTNIYMLRMLSIVSEVLSYLQAFEEASFYARRMVDGYMKLYHPNNAQLGMAVMRAGLTNWHAGNIEVGHGMICKAYAILLVTHGPSHPITKDLEAMRVQTEMELRMFRQNEFMYYKMREAALNNQPMQVMAEPSNEPSPALFHKKQ
partner: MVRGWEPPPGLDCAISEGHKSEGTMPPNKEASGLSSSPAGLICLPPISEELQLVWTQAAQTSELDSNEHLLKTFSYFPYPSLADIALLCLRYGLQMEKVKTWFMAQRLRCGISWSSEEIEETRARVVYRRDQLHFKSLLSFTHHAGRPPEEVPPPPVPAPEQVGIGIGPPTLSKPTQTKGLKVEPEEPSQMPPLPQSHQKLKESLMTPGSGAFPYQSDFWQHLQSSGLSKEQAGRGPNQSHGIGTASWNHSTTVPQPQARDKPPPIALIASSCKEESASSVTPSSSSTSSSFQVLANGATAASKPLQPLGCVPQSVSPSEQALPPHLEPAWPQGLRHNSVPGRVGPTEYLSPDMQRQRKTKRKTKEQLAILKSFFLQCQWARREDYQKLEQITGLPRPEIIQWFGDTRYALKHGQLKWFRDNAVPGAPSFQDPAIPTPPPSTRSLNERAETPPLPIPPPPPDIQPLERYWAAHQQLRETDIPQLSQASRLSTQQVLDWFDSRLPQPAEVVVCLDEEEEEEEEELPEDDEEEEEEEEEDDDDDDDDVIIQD
B5: Vesicle transport protein SFT2B (Homo sapiens), O95562 (parent)
chain: MDKLKKVLSGQDTEDRSGLSEVVEASSLSWSTRIKGFIACFAIGILCSLLGTVLLWVPRKGLHLFAVFYTFGNIASIGSTIFLMGPVKQLKRMFEPTRLIATIMVLLCFALTLCSAFWWHNKGLALIFCILQSLALTWYSLSFIPFARDAVKKCFAVCLA
partner: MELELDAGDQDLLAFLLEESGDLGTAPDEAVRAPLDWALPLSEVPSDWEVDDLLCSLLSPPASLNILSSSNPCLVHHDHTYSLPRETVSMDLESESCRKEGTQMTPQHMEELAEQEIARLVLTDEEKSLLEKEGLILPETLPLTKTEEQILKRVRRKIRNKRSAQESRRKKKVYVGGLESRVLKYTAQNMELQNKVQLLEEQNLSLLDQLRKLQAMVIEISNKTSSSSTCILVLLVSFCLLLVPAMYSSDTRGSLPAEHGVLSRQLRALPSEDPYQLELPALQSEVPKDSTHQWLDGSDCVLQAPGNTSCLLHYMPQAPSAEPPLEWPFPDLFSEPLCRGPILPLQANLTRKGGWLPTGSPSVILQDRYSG
B6: Asparagine synthetase [glutamine-hydrolyzing] (Homo sapiens), P08243 (parent)
chain: MCGIWALFGSDDCLSVQCLSAMKIAHRGPDAFRFENVNGYTNCCFGFHRLAVVDPLFGMQPIRVKKYPYLWLCYNGEIYNHKKMQQHFEFEYQTKVDGEIILHLYDKGGIEQTICMLDGVFAFVLLDTANKKVFLGRDTYGVRPLFKAMTEDGFLAVCSEAKGLVTLKHSATPFLKVEPFLPGHYEVLDLKPNGKVASVEMVKYHHCRDVPLHALYDNVEKLFPGFEIETVKNNLRILFNNAVKKRLMTDRRIGCLLSGGLDSSLVAATLLKQLKEAQVQYPLQTFAIGMEDSPDLLAARKVADHIGSEHYEVLFNSEEGIQALDEVIFSLETYDITTVRASVGMYLISKYIRKNTDSVVIFSGEGSDELTQGYIYFHKAPSPEKAEEESERLLRELYLFDVLRADRTTAAHGLELRVPFLDHRFSSYYLSLPPEMRIPKNGIEKHLLRETFEDSNLIPKEILWRPKEAFSDGITSVKNSWFKILQEYVEHQVDDAMMANAAQKFPFNTPKTKEGYYYRQVFERHYPGRADWLSHYWMPKWINATDPSARTLTHYKSAVKA
partner: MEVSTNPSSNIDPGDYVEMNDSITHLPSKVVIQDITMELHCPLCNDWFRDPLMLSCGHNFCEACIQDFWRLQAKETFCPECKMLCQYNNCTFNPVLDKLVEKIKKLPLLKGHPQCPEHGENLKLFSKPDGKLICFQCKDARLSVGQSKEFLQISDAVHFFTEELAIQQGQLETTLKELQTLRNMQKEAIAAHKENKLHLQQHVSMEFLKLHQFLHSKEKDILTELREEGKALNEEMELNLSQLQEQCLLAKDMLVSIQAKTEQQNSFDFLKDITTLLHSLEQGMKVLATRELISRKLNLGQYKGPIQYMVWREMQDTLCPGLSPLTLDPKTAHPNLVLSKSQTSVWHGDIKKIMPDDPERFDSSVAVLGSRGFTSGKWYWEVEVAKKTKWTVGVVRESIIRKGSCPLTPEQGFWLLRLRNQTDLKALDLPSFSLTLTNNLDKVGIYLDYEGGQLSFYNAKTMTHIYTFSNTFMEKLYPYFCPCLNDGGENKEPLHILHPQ
B7: Caspase-9 (Homo sapiens), P55211 (parent)
chain: MDEADRRLLRRCRLRLVEELQVDQLWDALLSRELFRPHMIEDIQRAGSGSRRDQARQLIIDLETRGSQALPLFISCLEDTGQDMLASFLRTNRQAAKLSKPTLENLTPVVLRPEIRKPEVLRPETPRPVDIGSGGFGDVGALESLRGNADLAYILSMEPCGHCLIINNVNFCRESGLRTRTGSNIDCEKLRRRFSSLHFMVEVKGDLTAKKMVLALLELAQQDHGALDCCVVVILSHGCQASHLQFPGAVYGTDGCPVSVEKIVNIFNGTSCPSLGGKPKLFFIQACGGEQKDHGFEVASTSPEDESPGSNPEPDATPFQEGLRTFDQLDAISSLPTPSDIFVSYSTFPGFVSWRDPKSGSWYVETLDDIFEQWAHSEDLQSLLLRVANAVSVKGIYKQMPGCFNFLRKKLFFKTS

Variants of: B1
Conditions: with cradd_human CRADD

Variant	effect of a mutation on the interaction
E388K	with no effect
R155H	with no effect

The next lines start with the values.

effect of a mutation on the interaction	Variant
with no effect	R265G
with no effect	V29E

Variants of: B2
Conditions: with caco2_human CALCOCO2, Q13137

effect of a mutation on the interaction	Variant
with no effect	V424L

Variants of: B3
Conditions: with id3_human ID3, Q02535

effect of a mutation on the interaction	Variant
with no effect	I11M

Variants of: B4
Conditions: with homez_human HOMEZ

effect of a mutation on the interaction	Variant
with no effect	R441W

Variants of: B5
Conditions: with creb3_human CREB3, O43889

effect of a mutation on the interaction	Variant
with no effect	T137M

Variants of: B6
Conditions: with tri69_human TRIM69, Q86WT6

effect of a mutation on the interaction	Variant
with no effect	A277T

Variants of: B7
Conditions: with birc2_human BIRC2, Q13490
Chain of birc2_human BIRC2, Q13490 (Q13490 whole entry): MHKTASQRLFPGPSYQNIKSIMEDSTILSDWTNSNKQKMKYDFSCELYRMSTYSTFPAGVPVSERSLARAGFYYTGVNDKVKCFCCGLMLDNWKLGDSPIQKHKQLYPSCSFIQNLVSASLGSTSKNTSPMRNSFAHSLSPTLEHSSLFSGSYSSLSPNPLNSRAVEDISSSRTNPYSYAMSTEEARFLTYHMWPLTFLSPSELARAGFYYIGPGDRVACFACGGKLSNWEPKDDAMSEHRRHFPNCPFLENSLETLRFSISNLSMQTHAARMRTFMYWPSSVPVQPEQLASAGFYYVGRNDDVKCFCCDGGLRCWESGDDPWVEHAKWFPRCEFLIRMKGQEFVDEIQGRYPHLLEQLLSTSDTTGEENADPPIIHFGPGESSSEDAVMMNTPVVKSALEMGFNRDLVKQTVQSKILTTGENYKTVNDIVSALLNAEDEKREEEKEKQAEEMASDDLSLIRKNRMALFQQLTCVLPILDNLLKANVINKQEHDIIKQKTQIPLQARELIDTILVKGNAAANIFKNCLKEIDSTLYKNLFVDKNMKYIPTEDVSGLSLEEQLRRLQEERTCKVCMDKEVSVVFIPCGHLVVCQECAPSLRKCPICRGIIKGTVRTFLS

effect of a mutation on the interaction	Variant
disrupting interaction strength	H237P
with no effect	R173H
